Data published in the supplement of paper PMC6757056.
± gives the standard deviation of the averaged measurements.

B1: library; a variant is named by its letters at N, in order (parent)
chain: GCUGUCACCGGUGCUUGGUACGUUAUAUUCAGCCGGUCUGAUGAGUCUNNNNNNAGACGAAACAGC

Columns and labels:
[1] = variants of: B1; experiment: normalized RNA/DNA level without ligand (relative to sTRSVctl = 100) (log10 (% of sTRSVctl)); HEK293T overexpressing SLC46A1; higher = less ribozyme self-cleavage, higher mRNA level; settings: without (6R,S)-folinic acid; ligand present: no
Outline: (§1)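 Library plasmids carrying ribozyme switches linked to mCherry, or to eGFP in some ligand experiments, were transfected into HEK293T at 4 µg per 6-well well, with any ligand added 1 h earlier. Seventy-two hours on, total RNA was extracted with EDTA and reverse-transcribed, amplified, barcoded and sequenced. RNA level was RNA over DNA reads normalized to a spiked-in non-cleaving sequence or to the top sequences, then scaled and log-transformed. The top set was 25 sequences, the transform was ×100 and log10, and sequences needed ≥100 DNA reads.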

[2] = variants of: B1; experiment: normalized RNA/DNA level with ligand (relative to sTRSVctl = 100) (log10 (% of sTRSVctl)); HEK293T overexpressing SLC46A1; ligand concentration (+) RNA-Seq: 6 mM; higher = less ribozyme self-cleavage, higher mRNA level; settings: with (6R,S)-folinic acid; ligand present: yes
Outline: as §1

| Variant | normalized RNA/DNA level without ligand (log10) [1] | normalized RNA/DNA level with ligand (log10) [2] |
| --- | --- | --- |
| UGGCCG | 2.01 ± 0.036 | 2.03 ± 0.046 |
| UGGCCC | 2.059 ± 0.0063 | 2.06 ± 0.068 |
| UGGCCU | 2.043 ± 0.014 | 2.03 ± 0.024 |
| CGGAGU | 2.019 ± 0.017 | 2.025 ± 0.012 |
| CGGAGC | 1.994 ± 0.0049 | 2 ± 0.032 |
| CGGAGG | 1.83 ± 0.02 | 1.994 ± 0.01 |
| CGGAGA | 1.997 ± 0.017 | 2.03 ± 0.042 |
| AGCGUA | 1.973 ± 0.0096 | 2 ± 0.028 |
| AGCGUU | 2 ± 0.021 | 2.015 ± 0.0096 |
| AGCGUC | 2.083 ± 0.0033 | 2.06 ± 0.037 |
| AGCGUG | 1.92 ± 0.023 | 2.02 ± 0.03 |
| UGGAGC | 1.996 ± 0.0034 | 2.06 ± 0.036 |
| AGGCAG | 1.965 ± 0.0036 | 1.99 ± 0.053 |
| AGGAAG | 1.89 ± 0.0078 | 2.01 ± 0.043 |
| AGGAAA | 1.942 ± 0.0081 | 1.99 ± 0.04 |
| GGGGCA | 2.054 ± 0.0064 | 2.02 ± 0.025 |
| GGGGCG | 2.073 ± 0.016 | 2.06 ± 0.045 |
| GGGGCU | 2.079 ± 0.017 | 2.055 ± 0.0086 |
| GGCUAU | 2.051 ± 0.0061 | 2.01 ± 0.027 |
| GGCUAC | 2.02 ± 0.042 | 2.05 ± 0.021 |
| GGCUAG | 2.063 ± 0.0075 | 2.042 ± 0.004 |
| GGCUAA | 2.036 ± 0.011 | 2.05 ± 0.033 |
| AGCUUA | 1.996 ± 0.0022 | 2.01 ± 0.062 |

| Variant | normalized RNA/DNA level without ligand (log10) [1] | normalized RNA/DNA level with ligand (log10) [2] |
| --- | --- | --- |
| AGCUUU | 2.014 ± 0.0092 | 2.016 ± 0.018 |
| AGCUUC | 2.0594 ± 0.00028 | 2.045 ± 0.011 |
| AGGGAA | 1.965 ± 0.0039 | 2.01 ± 0.025 |
| AGGGAU | 1.949 ± 0.0057 | 1.98 ± 0.031 |
| GGGCAC | 2.003 ± 0.0062 | 2.02 ± 0.041 |
| GGGCAG | 2.03 ± 0.0034 | 2.05 ± 0.057 |
| GGGCAA | 2.046 ± 0.013 | 2.05 ± 0.027 |
| AGGAUG | 1.92 ± 0.031 | 2.037 ± 0.019 |
| AGGAUU | 2.024 ± 0.017 | 2.05 ± 0.028 |
| AGGAUC | 2.059 ± 0.012 | 2.014 ± 0.013 |
| UGGCUC | 2.07 ± 0.024 | 2.04 ± 0.023 |
| UGGCUA | 2.03 ± 0.013 | 2.05 ± 0.028 |
| UGGCUU | 2.021 ± 0.00062 | 2.043 ± 0.0081 |
| UGGCUG | 2.066 ± 0.0012 | 2.09 ± 0.023 |
| AGCUAC | 2.029 ± 0.012 | 2.01 ± 0.063 |
| AGCUAA | 2 ± 0.033 | 1.999 ± 0.0025 |
| AGCUAG | 1.935 ± 0.002 | 2.01 ± 0.025 |
| AGCUAU | 1.987 ± 0.014 | 2.009 ± 0.018 |
| GGCUUU | 2.079 ± 0.0033 | 2.041 ± 0.013 |
| GGCUUA | 2.0768 ± 0.0012 | 2.03 ± 0.03 |
| GGCUUC | 2.085 ± 0.0026 | 2.08 ± 0.067 |
| UGCGGC | 1.998 ± 0.006 | 1.98 ± 0.045 |
| UGCGGU | 1.976 ± 0.014 | 2.03 ± 0.025 |

| Variant | normalized RNA/DNA level without ligand (log10) [1] | normalized RNA/DNA level with ligand (log10) [2] |
| --- | --- | --- |
| CGGACG | 2.017 ± 0.012 | 2.02 ± 0.0049 |
| CGGACC | 2.072 ± 0.0055 | 2.0545 ± 0.0011 |
| CGGACU | 2.043 ± 0.0042 | 2.01 ± 0.023 |
| CGGACA | 2.037 ± 0.0086 | 2.02 ± 0.03 |
| CGGCAC | 2.102 ± 0.011 | 2.052 ± 0.0022 |
| CGGCAG | 1.997 ± 0.0087 | 2.01 ± 0.052 |
| CGGCAA | 2.086 ± 0.0085 | 2.05 ± 0.023 |
| AGCUGA | 2.0496 ± 0.0016 | 2.028 ± 0.014 |
| AGCUGC | 2.038 ± 0.014 | 2.05 ± 0.022 |
| AGCUGU | 2.039 ± 0.012 | 2.032 ± 0.016 |
| AGCUGG | 2.05 ± 0.0052 | 2.06 ± 0.031 |
| UGCUCA | 1.982 ± 0.006 | 1.988 ± 0.013 |
| UGCUCC | 2.062 ± 0.0087 | 2.03 ± 0.081 |
| GGGGGU | 2.037 ± 0.0098 | 2.05 ± 0.052 |
| GGGGGC | 1.94 ± 0.038 | 2.03 ± 0.022 |
| GGGGGA | 2.057 ± 0.02 | 2.05 ± 0.043 |
| GGGGGG | 2.045 ± 0.019 | 2.04 ± 0.061 |
| CGGCGG | 1.968 ± 0.0051 | 2.04 ± 0.041 |
| CGGCGA | 2.103 ± 0.016 | 2.09 ± 0.026 |
| CGGCGC | 2.0778 ± 0.0006 | 2.05 ± 0.029 |
| CGGCGU | 2.05 ± 0.027 | 2.02 ± 0.046 |
| AGCUCU | 2.02 ± 0.039 | 2.055 ± 0.0097 |
| AGCUCC | 2.095 ± 0.0069 | 2.04 ± 0.042 |

| Variant | normalized RNA/DNA level without ligand (log10) [1] | normalized RNA/DNA level with ligand (log10) [2] |
| --- | --- | --- |
| AGCUCA | 2.07 ± 0.026 | 2.01 ± 0.04 |
| AGCUCG | 1.99 ± 0.024 | 1.998 ± 0.0042 |
| GGGGUC | 2.023 ± 0.0058 | 2.04 ± 0.048 |
| GGGGUG | 1.997 ± 0.011 | 2.061 ± 0.019 |
| GGGGUA | 1.988 ± 0.0044 | 1.99 ± 0.028 |
| GGGGUU | 2.014 ± 0.0056 | 2.02 ± 0.034 |
| CGGGGC | 2.03 ± 0.023 | 2.003 ± 0.014 |
| CGGGGG | 1.91 ± 0.034 | 2.05 ± 0.064 |
| CGGGGA | 2.104 ± 0.0034 | 2.11 ± 0.065 |
| CGGGGU | 2.039 ± 0.015 | 2.07 ± 0.024 |
| CGGGAG | 1.932 ± 0.0051 | 2 ± 0.023 |
| UGGGCA | 1.962 ± 0.0051 | 2.01 ± 0.032 |
| UGGGCU | 2.06 ± 0.024 | 2.04 ± 0.025 |
| UGGUCA | 1.9757 ± 0.0013 | 2.04 ± 0.062 |
| CGGGUC | 2.078 ± 0.0029 | 2.06 ± 0.038 |
| CGGGUU | 2 ± 0.024 | 2 ± 0.051 |
| CGGGUG | 1.976 ± 0.0081 | 2.01 ± 0.047 |
| CGGUAU | 1.976 ± 0.0076 | 2.003 ± 0.013 |
| CGGUAG | 1.93 ± 0.025 | 1.963 ± 0.018 |
| CGGUAC | 2.0071 ± 0.0016 | 1.992 ± 0.0076 |
| AGGGCG | 1.962 ± 0.008 | 2.02 ± 0.027 |
| AGGGCA | 2.033 ± 0.02 | 2.03 ± 0.042 |
| AGGGCC | 2.07 ± 0.023 | 2.06 ± 0.06 |

| Variant | normalized RNA/DNA level without ligand (log10) [1] | normalized RNA/DNA level with ligand (log10) [2] |
| --- | --- | --- |
| AGGGCU | 2.022 ± 0.0078 | 2.05 ± 0.024 |
| GGCUGA | 2.094 ± 0.014 | 2.08 ± 0.052 |
| GGCUGU | 2.067 ± 0.016 | 2.066 ± 0.019 |
| GGCUGC | 2.07 ± 0.0054 | 2.05 ± 0.021 |
| GGCUGG | 2.064 ± 0.0042 | 2.05 ± 0.046 |
| UGGGAC | 1.99 ± 0.03 | 2.015 ± 0.0073 |
| UGGGAA | 1.8778 ± 0.0006 | 1.98 ± 0.028 |
| GGGACC | 2.049 ± 0.0006 | 2.04 ± 0.024 |
| GGGACG | 2.039 ± 0.01 | 2.06 ± 0.051 |
| UGGCAC | 2.041 ± 0.016 | 2.04 ± 0.042 |
| UGGCAU | 1.965 ± 0.014 | 2.01 ± 0.021 |
| UGGCAA | 1.97 ± 0.024 | 2.01 ± 0.033 |
| UGGACU | 2.006 ± 0.0056 | 2.01 ± 0.023 |
| UGCUUU | 2.016 ± 0.0073 | 2.032 ± 0.0036 |
| UGCUUA | 2.003 ± 0.0057 | 2.03 ± 0.026 |
| UGCUUC | 2.04 ± 0.027 | 2.04 ± 0.043 |
| AGGCGU | 2.02 ± 0.025 | 2.048 ± 0.0022 |
| AGGCGG | 2.0398 ± 0.0017 | 2.044 ± 0.01 |
| AGGCGA | 2.0336 ± 0.00079 | 2.06 ± 0.023 |
| AGGCGC | 2.057 ± 0.015 | 2.03 ± 0.026 |
| UGCUGU | 2.015 ± 0.0082 | 1.995 ± 0.0073 |
| UGCUGC | 2.038 ± 0.018 | 2.01 ± 0.049 |
| UGGGGU | 1.94 ± 0.026 | 2.0251 ± 0.00068 |
